Patent US20260031189A1 (BIONTECH US, published 2026)

Biological target: S353-369
Test: FP assay; pair as listed in Table 23

B1: HLA-DRA*01:01/DRB4*01:03 soluble heterodimer (receptor)
MHC II alpha: not shown
MHC II beta: not shown
notes: also called HLA-DRB4*01:03/DRA*01:01
B1: binds.
